B1: SNAP91 (parent)
chain: FAQPMMRPPFGAAAVPGTQLSPSP
B2: ZC3H15 (parent)
chain: ENLFTGEDLDELEEELNTLDLEE

From the supplement of paper PMC10567573 come the findings set out here.
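Also: lentivirally expressed fusions sorted by FACS into six bins by GFP to DsRed ratio, PSI derived from sequencing read proportions per bin multiplied by bin number.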

In the first data set the parent is B1. In words: protein stability index of a GFP-peptide fusion (GPS, HEK-293T) (PSI 1-6); higher = more stable. The following applies: c terminus: a fixed tail appended.
Regarding FDQPMMRPPFGAAAVPGTQLSPSP [A2D], the protein stability index stood at 4.69.

Take FLQPMMRPPFGAAAVPGTQLSPSP [A2L]: the protein stability index turned out to be 2.62.

With FSQPMMRPPFGAAAVPGTQLSPSP [A2S], the protein stability index was 3.81. Still for that read-out and setting: with FFQPMMRPPFGAAAVPGTQLSPSP [A2F] the figure was 2.96.

Variants of B2 are the subject of a further data set. Described as above. Conditions: c terminus: native.
ENLFTGEDLDELEEELNTLKLEE [D20K]: the protein stability index was found to be 5.11. Still for that read-out and setting: the value for ENLFTGEDLDELEEELNTLTLEE [D20T] was 5.39; that for ENLFTGEDLDELEEELNTLRLEE [D20R] was 5.48. As for ENLFTGEDLDELEEELNTLGLEE [D20G], the protein stability index was found to be 5.35. Same read-out and setting: with ENLFTGEDLDELEEELNTLYLEE [D20Y] the figure was 5.22. Regarding ENLFTGEDLDELEEELNTLVLEE [D20V], the protein stability index was determined as 4.99. As for ENLFTGEDLDELEEELNTLMLEE [D20M], the protein stability index is 3.71.

In the case of ENLFTGEDLDELEEELNTLALEE [D20A], the protein stability index was 4.55. Still for that read-out and setting: the value for ENLFTGEDLDELEEELNTLHLEE [D20H] was 4.87; that for ENLFTGEDLDELEEELNTLFLEE [D20F] was 4.85; that for ENLFTGEDLDELEEELNTLSLEE [D20S] was 5.25. Same read-out and setting: with ENLFTGEDLDELEEELNTLNLEE [D20N] the figure was 4.67.

ENLFTGEDLDELEEELNTLCLEE [D20C]: the protein stability index came to 5.38. Same read-out and setting: with ENLFTGEDLDELEEELNTLELEE [D20E] the figure was 4.52; with ENLFTGEDLDELEEELNTLPLEE [D20P], 3.12. Still for that read-out and setting: with ENLFTGEDLDELEEELNTLWLEE [D20W] the figure was 4.2; with ENLFTGEDLDELEEELNTVDLEE [L19V], 3.86; with ENLFTGEDLDELEEELNTHDLEE [L19H], 3.85. For ENLFTGEDLDELEEELNTGDLEE [L19G], the protein stability index stood at 4.69. On the same count and under the same terms, with ENLFTGEDLDELEEELNTNDLEE [L19N] the figure was 4.52; with ENLFTGEDLDELEEELNTYDLEE [L19Y], 1.99; with ENLFTGEDLDELEEELNTIDLEE [L19I], 3.98.

Take ENLFTGEDLDELEEELNTFDLEE [L19F]: the protein stability index amounted to 2.97. Same read-out and setting: the value for ENLFTGEDLDELEEELNTADLEE [L19A] was 4.58; that for ENLFTGEDLDELEEELNTSDLEE [L19S] was 4.91; that for ENLFTGEDLDELEEELNTEDLEE [L19E] was 5.17.

Regarding ENLFTGEDLDELEEELNTTDLEE [L19T], the protein stability index came to 4.7. The same measure, in the same setting: with ENLFTGEDLDELEEELNTDDLEE [L19D] the figure was 5.17. Still for that read-out and setting: with ENLFTGEDLDELEEELNTWDLEE [L19W] the figure was 1.11; with ENLFTGEDLDELEEELNTQDLEE [L19Q], 4.27. On the same count and under the same terms, with ENLFTGEDLDELEEELNTPDLEE [L19P] the figure was 4.67; with ENLFTGEDLDELEEELNTKDLEE [L19K], 4.95.

As for ENLFTGEDLDELEEELNTLDLES [E23S], the protein stability index was 5.89. On the same count and under the same terms, with ENLFTGEDLDELEEELNTLDLEH [E23H] the figure was 5.42; with ENLFTGEDLDELEEELNTLDLEF [E23F], 5.07; with ENLFTGEDLDELEEELNTLDLEW [E23W], 5.54.

As to ENLFTGEDLDELEEELNTLDLEL [E23L], the protein stability index was 5.73.

Consider ENLFTGEDLDELEEELNTLDLEQ [E23Q], for which the protein stability index is 4.97. Same read-out and setting: the value for ENLFTGEDLDELEEELNTLDLEP [E23P] was 5.67; that for ENLFTGEDLDELEEELNTLDLEV [E23V] was 5.29; that for ENLFTGEDLDELEEELNTLDLEI [E23I] was 5.81. In the case of ENLFTGEDLDELEEELNTLDLED [E23D], the protein stability index turned out to be 5.47. The same measure, in the same setting: with ENLFTGEDLDELEEELNTLDLEY [E23Y] the figure was 5.58; with ENLFTGEDLDELEEELNTLDLEN [E23N], 5.51.

Turning to ENLFTGEDLDELEEELNTLDLER [E23R], the protein stability index is 3.26. Still for that read-out and setting: with ENLFTGEDLDELEEELNTLDLEM [E23M] the figure was 4.61.

Turning to ENLFTGEDLDELEEELNTLDLEG [E23G], the protein stability index came to 5.05. On the same count and under the same terms, the value for ENLFTGEDLDELEEELNTLDLEK [E23K] was 5.61.

ENLFTGEDLDELEEELNTLDLEA [E23A]: the protein stability index amounted to 5.96. The same measure, in the same setting: the value for ENLFTGEDLDELEEELNTLDREE [L21R] was 3.48; that for ENLFTGEDLDELEEELNTLDAEE [L21A] was 2.44; that for ENLFTGEDLDELEEELNTLDFEE [L21F] was 3.33.

Turning to ENLFTGEDLDELEEELNTLDIEE [L21I], the protein stability index was 2.25. Still for that read-out and setting: the value for ENLFTGEDLDELEEELNTLDKEE [L21K] was 2.71; that for ENLFTGEDLDELEEELNTLDHEE [L21H] was 3.31. The same measure, in the same setting: the value for ENLFTGEDLDELEEELNTLDNEE [L21N] was 1.1; that for ENLFTGEDLDELEEELNTLDQEE [L21Q] was 4.88; that for ENLFTGEDLDELEEELNTLDVEE [L21V] was 2.59. On the same count and under the same terms, the value for ENLFTGEDLDELEEELNTLDGEE [L21G] was 4.82; that for ENLFTGEDLDELEEELNTLDEEE [L21E] was 4.73.

Turning to ENLFTGEDLDELEEELNTLDCEE [L21C], the protein stability index was 2.13. The same measure, in the same setting: the value for ENLFTGEDLDELEEELNTLDTEE [L21T] was 2.68; that for ENLFTGEDLDELEEELNTLDDEE [L21D] was 4.99; that for ENLFTGEDLDELEEELNTLDYEE [L21Y] was 3.62. Still for that read-out and setting: with ENLFTGEDLDELEEELNTLDSEE [L21S] the figure was 2.58; with ENLFTGEDLDELEEELNTLDLRE [E22R], 5.7. On the same count and under the same terms, the value for ENLFTGEDLDELEEELNTLDLPE [E22P] was 5.17; that for ENLFTGEDLDELEEELNTLDLFE [E22F] was 5.82; that for ENLFTGEDLDELEEELNTLDLNE [E22N] was 5.37. Consider ENLFTGEDLDELEEELNTLDLCE [E22C], for which the protein stability index was found to be 5.58. On the same count and under the same terms, with ENLFTGEDLDELEEELNTLDLLE [E22L] the figure was 5.79; with ENLFTGEDLDELEEELNTLDLME [E22M], 5.37. For ENLFTGEDLDELEEELNTLDLSE [E22S], the protein stability index is 5.84. Still for that read-out and setting: with ENLFTGEDLDELEEELNTLDLGE [E22G] the figure was 5.33. On the same count and under the same terms, the value for ENLFTGEDLDELEEELNTLDLDE [E22D] was 5.75.

In the case of ENLFTGEDLDELEEELNTLDLKE [E22K], the protein stability index was found to be 5.67.

Turning to ENLFTGEDLDELEEELNTLDLTE [E22T], the protein stability index is 5.41. Still for that read-out and setting: with ENLFTGEDLDELEEELNTLDLYE [E22Y] the figure was 5.5; with ENLFTGEDLDELEEELNTLDLAE [E22A], 5.34; with ENLFTGEDLDELEEELNTLDLHE [E22H], 5.94.

With ENLFTGEDLDELEEELNTLDLVE [E22V], the protein stability index came to 5.55. Still for that read-out and setting: the value for ENLFTGEDLDELEEELNTLDLQE [E22Q] was 5.67; that for ENLFTGEDLDELEEELNTLDLIE [E22I] was 5.44; that for ENLFTGEDLDELEEELNTLDLWE [E22W] was 5.39. Same read-out and setting: the value for ENLFTGEDLDELEEELNSLDLEE [T18S] was 5.05; that for ENLFTGEDLDELEEELNQLDLEE [T18Q] was 5.2; that for ENLFTGEDLDELEEELNVLDLEE [T18V] was 3.58. The same measure, in the same setting: the value for ENLFTGEDLDELEEELNWLDLEE [T18W] was 3.31. ENLFTGEDLDELEEELNPLDLEE [T18P]: the protein stability index is 2.54. On the same count and under the same terms, with ENLFTGEDLDELEEELNNLDLEE [T18N] the figure was 5.31; with ENLFTGEDLDELEEELNLLDLEE [T18L], 4.96. Same read-out and setting: with ENLFTGEDLDELEEELNRLDLEE [T18R] the figure was 4.26.
